Assay results from publication PMC4866688, “Trypanosoma brucei DHFR-TS Revisited: Characterisation of a Bifunctional and Highly Unstable Recombinant Dihydrofolate Reductase-Thymidylate Synthase” (PLoS Neglected Tropical Diseases, 2016).

Biological target: the molecule itself
Test: SEC; Superdex 200 column, Bio-Rad gel filtration standards; purified cleaved enzyme, DHFR activity and absorbance at 280 nm followed

B1: Trypanosoma brucei dihydrofolate reductase-thymidylate synthase, Tsf tag removed with TEV protease (enzyme, UniProt Q27783 1-527, looked up)
chain: MLSLTRILRKKIPVHELAGKISRPPLRPFSVVVASDEKGGIGDGGTIPWEIPEDMQYFRRVTTNLRGKNVKPSPSKRNAVVMGRKTWDSLPPKFRPLSNRLNVVLSRSATKEQLLAGIPDPIKRAEAANDVVAVNGGLEDALRMLVSKEHTSSIETVFCIGGGTIYKQALCAPCVNVLQAIHRTVVRPASNSCSVFFDIPAAGTKTPEGLELVRESITDERVSTGAGGKKYQFEKLVPRNSEEEQYLNLVGRIIDEGCTKCDRTGVGTRSLFGAQMRFSLRNNRLPLLTTKRVFWRGVCEELLWFLRGETNAKLLSDKGIHIWDGNGSRAFLDSRGLTDYDEMDLGPVYGFQWRHFGADYISCKVDSEGKGVDQIANIVKSLIENPDDRRMICTAWNPAALPRMALPPCHMMAQFYVSNGELSCMLYQRSCDMGLGVPFNIASYALLTFLMAKASGLRPGELVHTLGDAHVYSNHVEPCRKQLKRVPRPFPFIVFKQDKEFLEDFQESDIEVIDYSPYPVISMEMAV
notes: bifunctional dihydrofolate reductase-thymidylate synthase of Trypanosoma brucei strain 427; N-terminal DHFR domain (ends at Arg 239), linker, C-terminal TS domain; also called TbDHFR-TS; cleaved TbDHFR-TS; not shown: Tsf (E. coli elongation factor Ts), N-terminal, cleaved; His6, internal (between Tsf and the TEV site), cleaved
stoichiometry N: 2
